Reference: paper PMC12636044, “Membrane binding of a cyanobacterial ESCRT‐III protein crucially involves the helix α1‐3 hairpin conserved in all superfamily members” (Protein Science : A Publication of the Protein Society, 2025)

B1: IM30 wt (inner membrane-associated protein of 30 kDa) (natural protein, Synechocystis, UniProt Q55707 1-267, looked up)
chain: MGLFDRLGRVVRANLNDLVSKAEDPEKVLEQAVIDMQEDLVQLRQAVARTIAEEKRTEQRLNQDTQEAKKWEDRAKLALTNGEENLAREALARKKSLTDTAAAYQTQLAQQRTMSENLRRNLAALEAKISEAKTKKNMLQARAKAAKANAELQQTLGGLGTSSATSAFERMENKVLDMEATSQAAGELAGFGIENQFAQLEASSGVEDELAALKASMAGGALPGTSAATPQLEAAPVDSSVPANNASQDDAVIDQELDDLRRRLNNL
notes: IM30 (Vipp1) of Synechocystis, full-length wild type; calculated MW 31.7 kDa with tag; Forms homo-oligomeric barrels and rods of several MDa; the number of subunits was not measured here; also called wt IM30; Vipp1
B2: IM30 α1-3 (domain or fragment, Synechocystis, UniProt Q55707 26-156, looked up)
chain: EKVLEQAVIDMQEDLVQLRQAVARTIAEEKRTEQRLNQDTQEAKKWEDRAKLALTNGEENLAREALARKKSLTDTAAAYQTQLAQQRTMSENLRRNLAALEAKISEAKTKKNMLQARAKAAKANAELQQTL
notes: IM30 (Vipp1) of Synechocystis, helical hairpin α1-3, residues 26-156 (printed for the α1-3 fragment in the simulation); calculated mass about 17.5 kDa; also called IM30 αH1-3; α1-3 helical hairpin; not shown: His10, N-terminal, kept

Key:
[1] = molecular target: the molecule itself; experiment: SEC; Superose 12 10/300, 20 mM HEPES, 100 mM NaCl, pH 7.6, 7°C, 0.5 mL/min; self-association of the purified variant
[2] = molecular target: the molecule itself; experiment: cross-linking; BS3 (285 μM), 5.7 μM protein incubated 2 h with DOPG liposomes of increasing concentrations, 25°C, SDS-PAGE; self-association

Protein	binding result [1]	binding result [2]
B1	binds	
B2		binds
